Where “and” joins values, the source holds several entries; their conditions need not be identical. Identical values can stand only once.
Conditions: Equus caballus, pH 5, 15 °C, Abs, CD, Fluorescence, Sodium acetate 0.1 M, reversible: Yes
[1] = GdnHCl, transition: 3, structure 1AKK

Sequence of Cytochrome c wild type, P00004 (P00004 whole entry): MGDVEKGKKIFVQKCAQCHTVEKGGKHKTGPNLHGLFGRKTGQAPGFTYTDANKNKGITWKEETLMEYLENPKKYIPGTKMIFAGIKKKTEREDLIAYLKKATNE
Sequence of Cytochrome c H34N, P00004 (P00004 whole entry H34N): as the sequence (P00004 whole entry) above, with H34N counted along it

Cytochrome c wild type, P00004
denaturant m value (GdnHCl): 4.39 kcal/mol/M | unfolding free energy (GdnHCl): 9.8 kcal/mol | denaturant m value (GdnHCl, transition: 3): 1.34 kcal/mol/M and 3.05 kcal/mol/M | denaturant midpoint (higher = more stable) (GdnHCl, transition: 3): 1.5 M and 2.55 M

Cytochrome c H34N, P00004
denaturant m value (GdnHCl, structure 1AKK): 4.8 kcal/mol/M | unfolding free energy (GdnHCl, structure 1AKK): 10.8 kcal/mol | denaturant m value [1]: 1.7 kcal/mol/M and 3.08 kcal/mol/M | denaturant midpoint (higher = more stable) [1]: 2.07 M and 2.34 M | unfolding free energy [1]: 3.5 kcal/mol and 7.3 kcal/mol | denaturant m value (Urea, structure 1AKK): 2.43 kcal/mol/M | unfolding free energy (Urea, structure 1AKK): 10.5 kcal/mol | denaturant midpoint (higher = more stable) (Urea, transition: 3, structure 1AKK): 4 M and 4.81 M
